Here are results for one molecule from patent US20240301031A1 (JIANGSU HENGRUI PHARMACEUTICALS, published 2024).

Experiment [1] has as its target T1, mouse BAFF (BAF-M521y, Acro Biosystems) (mouse, UniProt Q9WU72 127-309).
T1 construct: Bought protein
Kind of experiment: SPR (Biacore), sample captured on Protein A, antigen flowed, 1:1 fit. As to the method: (§1) A certain amount of test sample was subjected to affinity capture by a biosensor chip Protein A (GE, 29127556), then antigens at a series of concentration gradients were allowed to flow on the surface of the chip. The reaction signals were detected in real time by using Biacore (GE, 8K) to obtain association and dissociation curves. After the dissociation was completed for each cycle, the biochip was washed and regenerated with a 10 mM glycine-hydrochloric acid solution at pH 1.5 (GE, BR-1003-54). The experimental data were fitted using BIAevaluation version 4.1, GE software with a 1:1 model to obtain affinity values. The related antigen proteins used in this assay are as follows: human IL-23 (CT048-H08H, Sino biological), human IL-12 (CT050-H08H, Sino biological), human BAFF (10056-HNCH, Sino biological), human APRIL (5860-AP-010/CF, R&D Systems), cynomolgus monkey p40 (10215-CL, R&D Systems), cynomolgus monkey BAFF (BAF-CM412B, Kactus), cynomolgus monkey APRIL (APR-CM410B, Kactus), mouse BAFF (BAF-M521y, Acro Biosystems), and mouse APRIL (7907-AP/CF, R&D Systems).
(In general: SPR reads the build-up and loss of mass on a sensor chip optically.)

In experiment [2] the target is T2, human BAFF (10056-HNCH, Sino biological) (human, UniProt Q9Y275 134-285).
T2 construct: Bought protein
The experiment is described as above. As to the method:
as §1

Experiment [3] concerns the target T3, human APRIL (5860-AP-010/CF, R&D Systems) (human, UniProt O75888 115-250, limits assumed).
T3 construct: Bought protein
T3 sequence (looked up): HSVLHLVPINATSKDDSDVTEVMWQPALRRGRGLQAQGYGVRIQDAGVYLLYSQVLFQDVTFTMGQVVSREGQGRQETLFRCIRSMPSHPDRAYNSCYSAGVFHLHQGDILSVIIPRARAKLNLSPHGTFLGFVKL
Kind of experiment: competition ELISA: biotin-labeled APRIL to coated BCMA. As for the experimental part:
(§2) A receptor protein was diluted to 2 μg/mL with PBS at pH 7.4 (BasalMedia, B320) and added to a 96-well microplate (Corning, 3590) at 100 μL/well. The plate was incubated at 4° C. overnight. After the liquid was discarded, 200 μL of 1% Casein blocking solution (Thermo, 37528) was added to each well for blocking, and the plate was incubated at 37° C. for 2 h. After the blocking was completed, the blocking solution was discarded, and the plate was washed 3 times with a PBST buffer (PBS at pH 7.4 containing 0.1% tween-20) for later use. A biotin-labeled ligand protein at a fixed concentration was mixed with the antibody or fusion protein diluted in gradient, pre-incubated at 37° C. for 30 min, and added to a blocked microplate. The plate was incubated at 37° C. for 1.5 h. After the incubation was completed, the plate was washed 3 times with PBST. 100 μL of streptavidin-HRP (Invitrogen, 434323, diluted at a ratio of 1:4000) was added to each well, and the plate was incubated at 37° C. for 1 h. The supernatant was removed, and the plate was washed 3 times with PBST. […] The plate was read for absorbance values at 450 nm on a microplate reader, the curves for the inhibition of the binding of the ligands to the receptors were fitted with software, and the IC₅₀ values were calculated. […]

Experiment [4] addresses T2, human BAFF (10056-HNCH, Sino biological). The experiment can be described thus: competition ELISA: biotin-labeled BAFF to coated TACI. As for the experimental part: as §2
For experiment [5], the target named is T4, BAFF (ACROBiosystems, BAF-H5248) (UniProt Q9Y275 134-285).
T4 construct: Bought protein used in the ELISA with coated test sample
The experiment can be described thus: ELISA, fusion protein coated, BAFF titrated, Anti-His-HRP. As for the experimental part:
The binding activity of the TACI fusion proteins for BAFF and APRIL was assayed by the ELISA method (coating a test fusion protein sample). The specific procedures were as follows:
The test sample was diluted to 2 μg/mL with a PBS (BasalMedia, B320) buffer at pH 7.4 and added to a 96-well microplate (Corning, 3590) at 100 μL/well. The plate was incubated at 4° C. overnight. After the liquid was discarded, 300 μL of 5% skim milk (BD, 232100) diluted with PBS was added to each well for blocking, and the plate was incubated at 37° C. for 2 h. After the blocking was completed, the blocking solution was discarded, and the plate was washed 3 times with a PBST buffer (PBS at pH 7.4 containing 0.1% tween-20). 100 μL of BAFF (ACROBiosystems, BAF-H5248) or APRIL (R&D Systems, 5860-AP-010/CF) diluted in a gradient was added to each well, and the plate was incubated at 37° C. for 1 h. After the incubation, the plate was washed 3 times with PBST. When detecting the binding to BAFF, 100 μL of Anti-His-HRP (Sino biological, 105327-MM02T-H, diluted at a ratio of 1:2000) was added to each well; when detecting the binding to APRIL, 100 μL of anti-HA-HRP (Abcam, ab1190, diluted at a ratio of 1:4000) was added to each well. The plate was incubated at 37° C. for 1 h. The plate was washed 3 times with PBST. 100 μL of TMB chromogenic substrate (KPL, 5120-0077) was added to each well, and the plate was incubated at room temperature for 10-15 min. The reaction was stopped by adding 50 μL of 1 M H₂SO₄ to each well. The plate was read for absorbance values at 450 nm on a microplate reader, the binding curves of the antibodies to an antigen were fitted with software, and the EC₅₀ values were calculated.
(In general: ELISA stands for enzyme-linked immunosorbent assay.)

B1: RCT-18 (Telitacicept) (Fc fusion)
chain: SRVDQEERFPQGLWTGVAMRSCPEEQYWDPLLGTCMSCKTICNHQSQRTCAAFCRSLSCRKEQGKFYDHLLRDCISCASICGQHPKQCAYFCENKLRSPVNLPPELDKTHTCPPCPAPEAEGAPSVFLFPPKPKDTLMISRTPEVTCVVVDVSHEDPEVKFNWYVDGVEVHNAKTKPREEQYNSTYRVVSVLTVLHQDWLNGKEYKCKVSNKALPSSIEKTISKAKGQPREPQVYTLPPSRDELTKNQVSLTCLVKGFYPSDIAVEWESNGQPENNYKTTPPVLDSDGSFFLYSKLTVDKSRWQQGNVFSCSVMHEALHNHYTQKSLSLSPGK
notes: Positive control; TACI part is positions 13-118 of the extracellular region of human TACI, the rest is Fc
The term Kd denotes the concentration at which binding is half-saturated. As a reminder, the koff is a measure of how fast the partners let go of each other. Lower therefore signals slow dissociation. The term kon denotes the second-order rate constant of association. Read a low kon as slow association. What is called IC50 is the concentration that gives 50% inhibition. As usually defined, the EC50 is the concentration that produces a half-maximal response. For the molecule B1, the results for the Kd in experiment [1] and in experiment [2] were 0.121 nM and 0.186 nM, respectively. Besides, the dissociation rate constant (koff) in experiment [1] amounted to 8.98e-05 s⁻¹; in experiment [2], 0.00018 s⁻¹. Moreover, the results for the kon in experiment [1] and in experiment [2] were 740000 M⁻¹ s⁻¹ and 964000 M⁻¹ s⁻¹, respectively. Also, the IC50 in experiment [3] was found to be 25.1 nM; in experiment [4] it was 0.779 nM. The molecule also showed an EC50 in experiment [5] of 96.2 nM.
